Measurements: US20230226096A1 (Orna Therapeutics, Inc., priority 2020, published 2023)

B1: Rabovirus C (nucleic acid)
DNA: CCGGGTATAACCCGGAGTTTTGGGGCAGGTCCAAGCCCCACATAGGAACATACGATCCACGGATCGTGTGTTCTTTTATGCTTTCTAACCTTACCCTTTGTAACCATTACGCTTTACGCCGCATGGTGTTTGGCGGCACCATGACGTGGACAAGAGGTTACGCCATTACGATATGTACCCTCCCCTTTTGGGGAGAGACCGACCAATTATGGTACAGTATCCAACTGTATTGTGGTCAAGTACTTCTGTTTCCCCGGTGATGCGGGATAGGCTGTACCCACGGCCAAAACCTGCTGATCCGTTACCCGACTCACATCTACGAGGAGGCTAGTAAAAGGCATGAAGTTCAAGAGTATGATCCAACCAGATCCCCACTGGTAAACTAGTGATGAGGGTTCCCGTTCCGAACATGGCAACATGTGGGTTCCCTGCGTTGGCACTAGGCCCCTTCCGAGGGGTGCTCTGAAGATGGATTGTTGATGAAGACCAATTTGTGCATGTGTTTATCCTCCGGCCCTCTGA
modifications: Rabovirus C
B2: Cadicivirus B (nucleic acid)
DNA: CACCAACCCTTGACCTGTAATGTCAGTGGACAGAGTGCTCCTCTGTTCCCGGTTACCGTGTTCCAGGACACGATTGTAATCCTGCGCCTCACCAGCGCTGCGTGCACGTCTGCATAAGGAAACGTGCCTTCCCCATGTCTCTATCAATTCTTTGGTGAGTGACCGCCCTAGTTGCTCATCCTATGGGATTCTTCTCTCATGGGTTCTTTGTGGCATGCGAATGTCACCTTAATTGGAGGTCTTTAATTAGATATCCTTTCTTCATCTTTGATATGAGTGTCGGAATTTGATTCCTAGTCTCTGCAAAACAACCCCACTTGATGAATTCAACTTTTCAACCGCACAAACATAATCAGGTTTTTAAATTGAATGTTTCTAAATTCTAAATTTAGTTTATTTAAGTAGTTTGCCATCTTGACTCGATGTAAAATTGTCATACAAGTCTTCTTTTCTTTTCTTTACACTTTGAAGTTTGCACTTAGCAGTCGTTCTGCACAGCTTTCGAGTTTTGTTTGATCGACATCGCAACTTCCACCCACCTCTCTTTTTCTAGTGTTGAATGCGGCTAATCCTAACCCGAGAGCAATAAACCCAGGTTTATTGTCGTAACGCGCAAGTCTTGGACGGAACCGACTATACACACACCTCTTTACCCTTTAGTACACCCTTGGTACG
modifications: Cadicivirus B
B3: Simian Sapelovirus 2 (nucleic acid, listed as Sapelovirus sp.)
DNA: TTTTAACTTGTTATGACATTCAAGGAAAAAATGTCTTTTTCATTATGGGACTGACCTGTTTATGAACATGAGCAGCGGCACTGCTCCACGGGCTATCCGTGTAAGAAATATTGATTATTCTTATGGATCATGATTTCAGGGTTGGCCGCCCAGTCTAAAAGGCAATTGTGGTAAGCTATGTAAGTAGTTGGCTGTTGAAAGGAGCCAAGTACATCCTAGGTCTACGCTGTGCGGGCCGAAGTAAGACTTGGAACAACTCTGAGTAGGCAGTTTTTCTCTTTAGCCCAACACGACCGCATACTGAAGAGCTAGAGGCACTTTGGGGCAAAGGTAAAAGCATTGCTTAGACCGAATGTTCAATGAGACCTTGACGAGTGCTGTCACAGTGTCCCCTGATGGCAGTATGGCGCATGCTCTTGGCATTACCCATATGTGTATCTATAGGGGGGGGGCCCCCTATACTTAGTCTAGTGCTACCTGACAGGGCCGCGGCTGGTCGTCGGTGTGTGGTATAACCAGTAGTAATCCCCCATGGATTGCTTTAACTCCCCCTCCTCCCTCAACAAAACTTTCTCTAAG
B4: Rabovirus A NYC-B10 (nucleic acid)
DNA: CCGACCCCACTGGTCGAAGGCCACTTGGCAATAAGACTGGTGGAACAAGGTCGCCTGTAGTTGATTGGAACCTTCTTTCTAATGACTTATGTCAGCGGTGCTACTCACACCGTAACTCTCCTACCCTATCCCCACGCTTGTGGAACTAGGAGGGGATGAGTGATTCAAGTAAGTACTGTCAGAATGGTGAAAATAATCTGATTCTGAAACGCTATGGATCCATCGAAAGATGGGGCTACACGCCTGCGGAACAACACATGGTAACATGTGCCCCAGGGGCCGAAAGCCACGGTGATAGGATCACCCGTGTAGTTTGAGATCATATCAATGTTCATAGTCTAGTAAGATGATTTGAAATCTAACTGGTCTGATGGCTAACTGCTTGTCTTATTGCGGCCTAAGGATGTCCTGCAGGTACCTTTAGAGAACCTTAAGAGACTATTGATCTGAGCAGGAGCCAAGGTGGTCTTTCCCAGCCTTGGTTAAAAAGCGTCTAAGCCGCGGCAGGGGGCGGGAGGCCCCCTTTCCTCCCAAACTATAATATAGATTGT
modifications: Rabovirus A
B5: Parabovirus B (nucleic acid)
DNA: AACCCATAATCCATTGTCCATCAATGTTTTATGGGGGGGACCCTTTCTCCCCTCCCCCTCCAAATACCTTTTACCCCTCTGTAACCAAGAGTGTGCAAAATCTATTTACTAGCCCAGAATTGCGGCTTCTGGGGAGGTTTATTCCTCATGCCTAACAAGATGTTACGCAAACTCCGGGCTACGGCCCTGGGCTTTTGCCCTAAAGATTTAGAAGTTTACACTATCGTCCAACAGGAGGACAACAAACCAGTTGTTCTAAGGACAAGCACTTCTGTTTCCCCGGTGAGACTGGATAGACTGTACCCACGGTTGAAACTGGTTGATCCGTTACCCGACTCACTACTTCGAGAAGATTAGTAGGAAACTGTGAAACTGATTCCATTGATCCGGATACTTTCCCCGTATCCAGAAACTACTGATGAGGGTTGACTTCCCGACTACGGCGACGTAGTGTCATCCCTGCGCTGGCAGTAGGCCTCTTTGAGGATGGAAGATGTGGATCGGTAACCGAAGGTCCTATTGAGCTAGTGTTTATACCTCCGGCCTCCTGAATGCGGCTAATCCTAACCCATGATCTAGTGCTCACAAACCAGTGAGTAGCTAGTCGTAACGCGTAAGTCGTGGGCGGAACCGACTACTTTGGAGTGACCGTGTTTCCTATTTTACTTTTGTTTG
modifications: Parabovirus B
B6: Parabovirus C (nucleic acid)
DNA: GATGTATCCCCATCCCCCAGTGTGTATGCCATACTGCATAGCTCGCCTATGCCCTATGGATTCACAACCCTTTCATATACCCTCCCTACCCAACCCCGTAACCACATGCTTTACTCCGCTTGGGGTTTTGCGGCCCCATGTTGTGACGAAATGGCTACGCAATCAATGCGGCTAATGGGGCCTGCCGCTTTTAAGTGGCCCCAGTTAGAAGTTTATGCACACCCGCCCATTAGGAGGCCACCAGCCAGGTGGTCAGAGGGCAAGCACTTCTGTTTCCCCGGTGAAGTTTGATAAGCTGTGCCCACGGCTGAAGCAGACAGATCCGTTACCCGCCTCACTACTACGAGACGGCTAGTAGTGTGTAATATCCGAATTTCATTGATCCGGGTGTTCCCCCCACCCAGAAACGTGTGATGAGGAGCGGCACCCCTCCTATGGCAACATAGGGCCTCTCCTGCGCTGGCACACGGGCTCTATGAGCATGAAATCAGGAGAAAGTCACACGAAGACCTTATTGTGCTAGTGTTGATTCCTCCGCCCCCCTGAATGCGGCTAATCCCAACTCCGGAGCGCCCGCTGGCAAACCCGCCAGAAGAGCGTCGTAATGCGTAAGTCTGGAGCGGAACCGACTACTTTGGGTGTGGCGTGTTTCCTTTATTTCCTTTGTATTTGTAT
modifications: Parabovirus C

tested on: HEK293 cells; format: cell-based, human; conditions: luminescence from secreted Gluc in supernatant 24 hours after transfection of HEK293 cells; circular RNA encoding Gluc with the named IRES (UTR truncated to 675 nt)

Row | Molecule | Expression
1 | B1 | 2.49E+06
2 | B2 | 2.10E+05
3 | B3 | 4.24E+07
4 | B4 | 1.24E+06
5 | B5 | 7.85E+06
6 | B6 | 1.83E+07
